Source: publication PMC8894703, “ZNF191 alters DNA methylation and activates the PI3K‐AKT pathway in hepatoma cells via transcriptional regulation of DNMT1”

Target: ZNF191 (zinc finger protein 191) (UniProt P17028 1-368)
Test: EMSA; LightShift Chemiluminescent EMSA kit (Pierce); buffer, salt, pH and temperature not given; unlabeled oligonucleotides used for competition, outcome not given
Conditions: protein: recombinant; label: 5' biotin; blunt

Chain of ZNF191 (zinc finger protein 191) (P17028 whole entry): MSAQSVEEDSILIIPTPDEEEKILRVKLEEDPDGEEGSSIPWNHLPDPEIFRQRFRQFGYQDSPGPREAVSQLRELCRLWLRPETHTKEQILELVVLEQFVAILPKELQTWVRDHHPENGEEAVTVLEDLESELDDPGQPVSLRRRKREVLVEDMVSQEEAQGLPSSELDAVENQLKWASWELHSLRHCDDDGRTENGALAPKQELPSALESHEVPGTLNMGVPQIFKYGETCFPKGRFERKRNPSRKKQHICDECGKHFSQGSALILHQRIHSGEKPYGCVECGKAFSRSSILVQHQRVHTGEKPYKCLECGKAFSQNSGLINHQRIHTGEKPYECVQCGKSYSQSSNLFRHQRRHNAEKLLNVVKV

Row | Binder | binding result
1 | Mut-DNMT1(nt-240) EMSA probe, 30 bp (dsDNA) DNA 1: CCTGAAAGTTTGTTTGTTTGTTTGCCTCGG DNA 2: CCGAGGCAAACAAACAAACAAACTTTCAGG | no binding
2 | DNMT1(nt-240) EMSA probe, 30 bp (dsDNA) DNA 1: CCTGAAAGAATGAATGAATGAATGCCTCGG DNA 2: CCGAGGCATTCATTCATTCATTCTTTCAGG | binds
